This experiment concerns the target Smad3 (UniProt P84022). Nature of the experiment: co-immunoprecipitation, blot for 14-3-3σ. Conditions: reference: wild type; sites S69,S74.

The values that follow come from publication PMC3669286.

Regarding 14-3-3σ (from UniProt P31947) S69/74A, the “binding against the reference” value is listed as “lost”.
